Data as given in US20190106493A1 (MABQUEST, published 2019).

B1: 137F2 (antibody, V domains shown)
VH: QVQLQQPGAELVRPGTSVKMSCKAAGYTFTNYWIGWIKQRPGHGLEWIGDIYPGGGYTNYNEKFKGKATLTADTSSSTAYMQVSSLTSEDTGIYYCARGYDFVLDRWGQGTSVTVSS
VL: DIVMSQSPSSLAVSTGEKVTMTCKSSQSLFNSETQKNYLAWYQQKPGQPPKLLIFWASTRESGVPDRFLGSGSGTDFTLTISSVQAEDLAVYYCKQSYTLRTFGGGTKLEIK
B2: 135C12 (antibody, V domains shown)
VH: EVQLHQSGPELLKPGASVRMSCKASGYTFTNFYIHWVKQSHGKSIEWIGSIYPNYGDTAYNQKFKDKATLTVDKSSSTAYMALRSLTSEDSAVYYCARGYSYAMDYWGQGTSVTVSS
VL: NIVMTQSPKSMSMSVGERVTLTCKASENVVTYVSWYQQKPEQSPKLLIYGASNRYTGVPDRFTGSGSATDFTLTISSVQAEDLADYHCGQGYSYPYTFGGGTKLEIK

Experiments:
PD-1 Fc fusion protein = biological target: T1, PD-1 Fc fusion protein (human, UniProt Q15116 25-167, limits assumed); experiment: FIG. 5A; Luminex, PD-1 Fc beads, antibody titrated, competitor: fixed biotinylated PD-L1
T1 construct: construct limits, linker and Fc not described; the bead protein is printed only as 'PD-1 Fc fusion protein'; also called human PD-1 Fc fusion protein; PD-1 Fc fusion protein coated beads

[1] = biological target: endogenous cell surface PD-1 on activated CD4 T cells (human, UniProt Q15116 25-288); experiment: cell-based or functional assay
Chain of endogenous cell surface PD-1 on activated CD4 T cells (Q15116 25-288): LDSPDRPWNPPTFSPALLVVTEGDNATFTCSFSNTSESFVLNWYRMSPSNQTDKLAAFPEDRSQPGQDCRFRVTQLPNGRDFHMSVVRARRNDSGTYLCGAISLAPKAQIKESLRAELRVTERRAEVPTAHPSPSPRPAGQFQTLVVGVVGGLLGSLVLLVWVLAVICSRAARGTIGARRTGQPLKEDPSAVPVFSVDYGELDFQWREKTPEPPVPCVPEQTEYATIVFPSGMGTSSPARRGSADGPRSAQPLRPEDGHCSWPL

T1 sequence (Q15116 25-167 limits assumed): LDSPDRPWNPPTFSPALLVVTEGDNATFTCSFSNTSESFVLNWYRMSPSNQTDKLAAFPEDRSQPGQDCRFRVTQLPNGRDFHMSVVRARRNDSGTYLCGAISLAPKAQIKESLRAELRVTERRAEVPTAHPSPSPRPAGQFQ

Row | Binder | IC50 (PD-1 Fc fusion protein) [nM] | EFRA % relative to peptide stimulation alone [1] [%]
1 | B1 | ~0.2 | 250
2 | B2 |  | 195
